Laboratory results from IntAct's records for PubMed 15604664.

B1: Floral homeotic protein … (Arabidopsis thaliana (Mouse-ear cress)), P48007 (parent)
chain: MGRGKIEIKRIENANNRVVTFSKRRNGLVKKAKEITVLCDAKVALIIFASNGKMIDYCCPSMDLGAMLDQYQKLSGKKLWDAKHENLSNEIDRIKKENDSLQLELRHLKGEDIQSLNLKNLMAVEHAIEHGLDKVRDHQMEILISKRRNEKMMAEEQRQLTFQLQQQEMAIASNARGMMMRDHDGQFGYRVQPIQPNLQEKIMSLVID
partner: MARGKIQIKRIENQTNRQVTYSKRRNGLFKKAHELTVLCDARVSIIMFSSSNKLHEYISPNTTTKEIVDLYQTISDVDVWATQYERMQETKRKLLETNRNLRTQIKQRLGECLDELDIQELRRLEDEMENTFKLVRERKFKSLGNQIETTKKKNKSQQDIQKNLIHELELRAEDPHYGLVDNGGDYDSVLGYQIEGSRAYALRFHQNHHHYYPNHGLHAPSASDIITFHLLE

Variants of: B1
Details: with ap3_arath AP3, P35632

Row | Variant | effect of a mutation on the interaction
1 | MGRGKIEIKRIENANNRVVTFSKRRNGLVKKAKEITVLCDAKVALIIFASNGKMIDYCCPSMDLGAMLDQYQKLSGKKLWDAKHENLSNEIDRIKKENDSLPLELRHLKGEDIQSLNLKNLMAVEHAIEHGLDKVRDHQMEILISKRRNEKMMAEEQRQLTFQLQQQEMAIASNARGMMMRDHDGQFGYRVQPIQPNLQEKIMSLVID [Q102P] | decreasing interaction
2 | MGRGKIEIKRIENANNRVVTFSKRRNGLVKKAKEITVLCDAKVALIIFASNGKMIDYCCPSMDLGAMLDQYQKLSGKKLWDAKHENPSNEIDRIKKENDSLQLELRHLKGEDIQSLNLKNLMAVEHAIEHGLDKVRDHQMEILISKRRNEKMMAEEQRQLTFQLQQQEMAIASNARGMMMRDHDGQFGYRVQPIQPNLQEKIMSLVID [L87P] | decreasing interaction
3 | MGRGKIEIKRIENANNRVVTFSKRRNGLVKKAKEITVLCDAKVALIIFASNGKMIDYCCPSMDLGAMLDQYQKLSGKKLWDAKHENLSNEIDRIKKENDSLQLELRHLKGEDIQSPNLKNLMAVEHAIEHGLDKVRDHQMEILISKRRNEKMMAEEQRQLTFQLQQQEMAIASNARGMMMRDHDGQFGYRVQPIQPNLQEKIMSLVID [L116P] | decreasing interaction
4 | MGRGKIEIKRIENANNRVVTFSKRRNGLVKKAKEITVLCDAKVALIIFASNGKMIDYCCPSMDLGAMLDQYQKLSGKKLWDAKHENLSNEIDRIKKENDSLQLELRHLKPEDIQSLNLKNLMAVEHAIEHGLDKVRDHQMEILISKRRNEKMMAEEQRQLTFQLQQQEMAIASNARGMMMRDHDGQFGYRVQPIQPNLQEKIMSLVID [G110P] | decreasing interaction
5 | MGRGKIEIKRIENANNRVVTFSKRRNGLVKKAKEITVLCDAKVALIIFASNGKMIDYCCPSMDLGAMLDQYQKLSGKKLWDAKHENLSNEIDRIKKENDSLQPELRHLKGEDIQSLNLKNLMAVEHAIEHGLDKVRDHQMEILISKRRNEKMMAEEQRQLTFQLQQQEMAIASNARGMMMRDHDGQFGYRVQPIQPNLQEKIMSLVID [L103P] | decreasing interaction
6 | MGRGKIEIKRIENANNRVVTFSKRRNGLVKKAKEITVLCDAKVALIIFASNGKMIDYCCPSMDLGAMLDQYQKLSGKKLWDAKHENLSNEIDRIKKENDSLQLEHRHLKGEDIQSLNLKNLMAVEHAIEHGLDKVRDHQMEILISKRRNEKMMAEEQRQLTFQLQQQEMAIASNARGMMMRDHDGQFGYRVQPIQPNLQEKIMSLVID [L105H] | decreasing interaction
7 | MGRGKIEIKRIENANNRVVTFSKRRNGLVKKAKEITVLCDAKVALIIFASNGKMIDYCCPSMDLGAMLDQYQKLSGKKLWDAKHENLSNEIDRIKKENDSAQLELRHLKGEDIQSLNLKNLMAVEHAIEHGLDKVRDHQMEILISKRRNEKMMAEEQRQLTFQLQQQEMAIASNARGMMMRDHDGQFGYRVQPIQPNLQEKIMSLVID [L101A] | decreasing interaction
8 | MGRGKIEIKRIENANNRVVTFSKRRNGLVKKAKEITVLCDAKVALIIFASNGKMIDYCCPSMDLGAMLDQYQKLSGKKLWDAKHENLSNEIDRIKKENDSLQLELRHLKGEDIQSLNLKNAMAVEHAIEHGLDKVRDHQMEILISKRRNEKMMAEEQRQLTFQLQQQEMAIASNARGMMMRDHDGQFGYRVQPIQPNLQEKIMSLVID [L121A] | decreasing interaction

Further lines, results first:

Row | effect of a mutation on the interaction | Variant
9 | decreasing interaction | MGRGKIEIKRIENANNRVVTFSKRRNGLVKKAKEITVLCDAKVALIIFASNGKMIDYCCPSMDLGAMLDQYQKLSGKKLWDAKHENLSNEIDRIKKENDSLQLELRHLKGEDIQSLNLKNLMAVEHAIEHGLDKVRDHQMEILIPKRRNEKMMAEEQRQLTFQLQQQEMAIASNARGMMMRDHDGQFGYRVQPIQPNLQEKIMSLVID [S145P]
10 | decreasing interaction | MGRGKIEIKRIENANNRVVTFSKRRNGLVKKAKEITVLCDAKVALIIFASNGKMIDYCCPSMDLGAMLDQYQKLSGKKLWDAKHENLSNEIDRIKKENDSLQLELRHLKGEDIQSLNLKNLMAVEHAIEHGPDKVRDHQMEILISKRRNEKMMAEEQRQLTFQLQQQEMAIASNARGMMMRDHDGQFGYRVQPIQPNLQEKIMSLVID [L132P]
11 | increasing interaction | MGRGKIEIKRIENANNRVVTFSKRRNGLVKKAKEITVLCDAKVALIIFASNGKMIDYCCPSMDLGAMLDQYQKLSGKKLWDAKHENLSNEIDRIKKENDSLQLELRHLKGEDIQSLNLKNLMAVEHAIEHGLDKVRDHQMEILISKRRNEKMMAEEQRQLTFQLQQQEMAIASNARPMMMRDHDGQFGYRVQPIQPNLQEKIMSLVID [G177P]
12 | decreasing interaction | MGRGKIEIKRIENANNRVVTFSKRRNGLVKKAKEITVLCDAKVALIIFASNGKMIDYCCPSMDLGAMLDQYQKLSGKKLWDAKHENLSNEIDRIKKENDSLQLELRHLKGEDIQSLNLKNLMAVEHAIEHGLDKVRDHQMEIPISKRRNEKMMAEEQRQLTFQLQQQEMAIASNARGMMMRDHDGQFGYRVQPIQPNLQEKIMSLVID [L143P]
13 | increasing interaction | MGRGKIEIKRIENANNRVVTFSKRRNGLVKKAKEITVLCDAKVALIIFASNGKMIDYCCPSMDLGAMLDQYQKLSGKKLWDAKHENLSNEIDRIKKENDSLQLELRHLKGEDIQSLNLKNLMAVEHAIEHGLDKVRDHQMEILISKRRNEKMMAEEQRQPTFQLQQQEMAIASNARGMMMRDHDGQFGYRVQPIQPNLQEKIMSLVID [L160P]
14 | decreasing interaction | MGRGKIEIKRIENANNRVVTFSKRRNGLVKKAKEITVLCDAKVALIIFASNGKMIDYCCPSMDLGAMLDQYQKLSGKKLWDAKHENLSNEIDRIKKENDSLQLELRHLKGEDIQSLNLKNLMAVEHAIEHVLDKVRDHQMEILISKRRNEKMMAEEQRQLTFQLQQQEMAIASNARGMMMRDHDGQFGYRVQPIQPNLQEKIMSLVID [G131V]
15 | decreasing interaction | MGRGKIEIKRIENANNRVVTFSKRRNGLVKKAKEITVLCDAKVALIIFASNGKMIDYCCPSMDLGAMLDQYQKLSGKKLWDAKHENLSNEIDRIKKENDSLQLELRHLKGEDIQSLNLKNLMAVEHAIEHPLDKVRDHQMEILISKRRNEKMMAEEQRQLTFQLQQQEMAIASNARGMMMRDHDGQFGYRVQPIQPNLQEKIMSLVID [G131P]
16 | decreasing interaction | MGRGKIEIKRIENANNRVVTFSKRRNGLVKKAKEITVLCDAKVALIIFASNGKMIDYCCPSMDLGAMLDQYQKLSGKKLWDAKHENLSNEIDRIKKENDSLQLELRHLKGEDIQSLNLKNLMAVEHAIEHGLDKVRDHQMEPLISKRRNEKMMAEEQRQLTFQLQQQEMAIASNARGMMMRDHDGQFGYRVQPIQPNLQEKIMSLVID [I142P]
17 | increasing interaction | MGRGKIEIKRIENANNRVVTFSKRRNGLVKKAKEITVLCDAKVALIIFASNGKMIDYCCPSMDLGAMLDQYQKLSGKKLWDAKHENLSNEIDRIKKENDSLQLELRHLKGEDIQSLNLKNLMAVEHAIEHGLDKVRDHQMEILISKRRPEKMMAEEQRQLTFQLQQQEMAIASNARGMMMRDHDGQFGYRVQPIQPNLQEKIMSLVID [N149P]
18 | decreasing interaction | MGRGKIEIKRIENANNRVVTFSKRRNGLVKKAKEITVLCDAKVALIIFASNGKMIDYCCPSMDLGAMLDQYQKLSGKKLWDAKHENLSNEIDRIKKENDSLQLELRHLKGEDIQSLNLKNPMAVEHAIEHGLDKVRDHQMEILISKRRNEKMMAEEQRQLTFQLQQQEMAIASNARGMMMRDHDGQFGYRVQPIQPNLQEKIMSLVID [L121P]
19 | decreasing interaction | MGRGKIEIKRIENANNRVVTFSKRRNGLVKKAKEITVLCDAKVALIIFASNGKMIDYCCPSMDLGAMLDQYQKLSGKKLWDAKHENLSNEIDRIKKENDSLQLELRHLKGEDIQSLNLKNLMAVEHAIEHGLDKVRDHQMEILISKRRNEKMMPEEQRQLTFQLQQQEMAIASNARGMMMRDHDGQFGYRVQPIQPNLQEKIMSLVID [A154P]
